Data set [1] concerns the target PstII Mod subunit. Description: SEC-MALS; 0.5–1.0 mg/ml (1.25–2.5 µM) enzyme, Superdex 200, Standard Assay Buffer minus BSA (50 mM Tris–HCl pH 8.0, 50 mM KCl, 10 mM MgCl2, 1 mM DTT), room temperature; enzyme alone or with excess Hex-labelled specific 50-mer DNA, with or without 1 mM ATP. In general terms: SEC sorts molecules by how far they enter the pores of the column.

Data set [2] concerns the target PstII Res subunit. The data set is described as above.
Data set [3] has as its target EcoPI Res subunit (wild type, untagged) (Escherichia coli). The data set is described as above.
Data set [4] shares this target. Description: native MS; enzyme only, 10 µM, dialysed against 100 mM ammonium acetate pH 7.0; Q-TOF II modified for high-mass operation.
The target of data set [5] is T1, EcoPI holoenzyme (Res1Mod2) (Escherichia coli, UniProt P08764;P08763 1-970;1-646). Description: native MS; no ATP; 1:1 complex 288.1 kDa; SEC-MALS: 50 mM Tris-HCl pH 8.0, 50 mM KCl, 10 mM MgCl2, 1 mM DTT, 0.1 mg/ml BSA (Standard Assay Buffer), 20 C; native MS: volatile ammonium acetate buffer, enzyme:DNA 1:2. The settings on record: protein: recombinant; tags: none; copies: 1;2.

The target of data set [6] is T1, EcoPI holoenzyme (Res1Mod2). The experiment in a line: SEC-MALS; 10 mM Mg2+, no ATP; 1:1 Res1Mod2:DNA; SEC-MALS: 50 mM Tris-HCl pH 8.0, 50 mM KCl, 10 mM MgCl2, 1 mM DTT, 0.1 mg/ml BSA (Standard Assay Buffer), 20 C; native MS: volatile ammonium acetate buffer, enzyme:DNA 1:2. The following applies: protein: recombinant; tags: none; copies: 1;2; label: 5'-Hex (12C linker) on top strand.

In data set [7] the target is T2, EcoP15I Res subunit R534A (Escherichia coli, UniProt Q5ZND2 1-970, R534A).
T2 construct: Res subunit of the Type III restriction endonuclease EcoP15I, Escherichia coli; mutated in Motif VI of the helicase, lacks ATPase activity; also called R534A EcoP15I; R534A P15I; source: purified identically to the wild-type (DEAE-Sepharose, heparin, Superdex 200), co-purified with Mod
T2 sequence (looked up): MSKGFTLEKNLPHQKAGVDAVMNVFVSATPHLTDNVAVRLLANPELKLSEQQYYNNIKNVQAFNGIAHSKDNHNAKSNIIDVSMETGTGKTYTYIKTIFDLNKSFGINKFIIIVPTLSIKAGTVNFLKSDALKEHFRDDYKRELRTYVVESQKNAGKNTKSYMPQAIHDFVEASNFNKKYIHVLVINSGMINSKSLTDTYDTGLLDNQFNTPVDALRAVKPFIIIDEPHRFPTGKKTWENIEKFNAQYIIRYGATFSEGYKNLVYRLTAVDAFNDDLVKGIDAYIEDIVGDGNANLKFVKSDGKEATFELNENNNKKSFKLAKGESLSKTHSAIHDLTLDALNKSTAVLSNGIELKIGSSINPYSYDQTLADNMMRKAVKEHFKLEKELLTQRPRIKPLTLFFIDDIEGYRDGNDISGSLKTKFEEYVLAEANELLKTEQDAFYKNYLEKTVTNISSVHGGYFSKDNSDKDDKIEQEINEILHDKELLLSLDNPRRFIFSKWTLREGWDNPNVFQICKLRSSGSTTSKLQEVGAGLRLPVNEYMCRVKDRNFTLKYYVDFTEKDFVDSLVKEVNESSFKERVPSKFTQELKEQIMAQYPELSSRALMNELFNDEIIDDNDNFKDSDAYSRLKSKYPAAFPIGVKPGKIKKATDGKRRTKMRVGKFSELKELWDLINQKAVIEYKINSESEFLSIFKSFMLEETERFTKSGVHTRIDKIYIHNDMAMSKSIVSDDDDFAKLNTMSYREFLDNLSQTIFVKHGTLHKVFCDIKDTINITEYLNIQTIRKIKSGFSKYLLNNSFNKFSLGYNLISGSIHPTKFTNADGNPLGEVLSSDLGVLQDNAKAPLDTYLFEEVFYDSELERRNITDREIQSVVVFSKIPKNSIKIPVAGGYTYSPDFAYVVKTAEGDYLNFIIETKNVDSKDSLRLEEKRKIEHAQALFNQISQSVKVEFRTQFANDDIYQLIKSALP
The experiment in a line: SEC-MALS; 0.5–1.0 mg/ml (1.25–2.5 µM) enzyme, Superdex 200, Standard Assay Buffer minus BSA (50 mM Tris–HCl pH 8.0, 50 mM KCl, 10 mM MgCl2, 1 mM DTT), room temperature; enzyme alone or with excess Hex-labelled specific 50-mer DNA, with or without 1 mM ATP. The following applies: both partners purified.

Data set [8] concerns the target T3, EcoP15I Res subunit (wild type, untagged) (Escherichia coli, UniProt Q5ZND2 1-970).
T3 construct: Res (restriction) subunit of the Type III restriction endonuclease EcoP15I, Escherichia coli; Made only together with Mod from the natural operon; also called wt EcoP15I
T3 sequence (looked up): T2 sequence (looked up) with A534R
The experiment in a line: native MS; enzyme only, 10 µM, dialysed against 100 mM ammonium acetate pH 7.0; Q-TOF II modified for high-mass operation. The settings on record: both partners purified.

Data set [9] concerns the target T4, EcoP15I Res subunit with C-terminal Avi-tag, biotinylated (Escherichia coli, UniProt Q5ZND2 1-970, biotin on the Avi-tag (co-expressed biotin ligase)).
T4 construct: Res subunit of the Type III restriction endonuclease EcoP15I, Escherichia coli; also called biotinylated EcoP15I; bio-EcoP15I; not shown: Avi-tag, C-terminal, kept
T4 sequence (looked up): T2 sequence (looked up) with A534R
Described as above. The settings on record: both partners purified.

Data set [10] concerns the molecule itself. The experiment in a line: native MS; wt EcoP15I 5 µM with 10 µM 50-mer DNA (1:2), 2 mM magnesium acetate (4 mM MgOAc and 2 mM ATP where ATP was added), buffer-exchanged into 100 mM ammonium acetate; Synapt G2 HDMS.
Data set [11] has as its target T5, EcoP15I Res subunit (commercial enzyme from New England Biolabs) (Escherichia coli, UniProt Q5ZND2 1-970).
T5 construct: Res subunit of the Type III restriction endonuclease EcoP15I, Escherichia coli; also called EcoP15I NEB; commercially available EcoP15I; source: bought: NEB (catalogue no. R0646S)
T5 sequence (looked up): T2 sequence (looked up) with A534R
The experiment in a line: SEC-MALS; 0.5–1.0 mg/ml (1.25–2.5 µM) enzyme, Superdex 200, Standard Assay Buffer minus BSA (50 mM Tris–HCl pH 8.0, 50 mM KCl, 10 mM MgCl2, 1 mM DTT), room temperature; enzyme alone or with excess Hex-labelled specific 50-mer DNA, with or without 1 mM ATP. The following applies: both partners purified.

From PMC4005696, “Type III restriction endonucleases are heterotrimeric: comprising one helicase–nuclease subunit and a dimeric methyltransferase that binds only one specific DNA” (Nucleic Acids Research, 2014) come the findings set out here.

Where a chain is given by its changes, count along the chain named. Numbers in names are those of the source.

Broadly, the stoichiometry N is the number of molecules, sites or subunits per partner or assembly.

For the molecule PstII Mod subunit (enzyme), the stoichiometry N was determined as 2 in data set [1] and 2 Mod per Res in data set [2].
EcoPI Mod subunit (untagged) (enzyme): the stoichiometry N in data set [3] and in [4] was 2 Mod per Res throughout.

B1: EcoPI specific 50-mer duplex (sDNA), native MS (dsDNA)
DNA 1: TGGCTTAGACCCAGCGCAGATACCAAAACTGTCCTTCTATTGACAATTCG
DNA 2: CGAATTGTCAATAGAAGGACAGTTTTGGTATCTGCGCTGGGTCTAAGCCA
Regarding B1, in data set [5], the binding result is “binds”.

B2: EcoPI specific 50-mer duplex (sDNA), Hex (dsDNA)
DNA 1: B1 DNA 1
DNA 2: B1 DNA 2
With B2, in [6], the binding result is listed as “binds”.

B3: EcoP15I Mod subunit (untagged) (enzyme, Escherichia coli, UniProt P12364 1-644, looked up)
chain: MKKETIFSEVETANSKQLAVLKANFPQCFDKNGAFIQEKLLEIIRASEVELSKESYSLNWLGKSYARLLANLPPKTLLAEDKTHNQQEENKNSQHLLIKGDNLEVLKHMVNAYAEKVKMIYIDPPYNTGKDGFVYNDDRKFTPEQLSELAGIDLDEAKRILEFTTKGSSSHSAWLTFIYPRLYIARELMREDGTIFISIDHNEFSQLKLVCDEIFGEQNHVGDLVWKNATDNNPSNIAVEHEYIIVYTKNKEQLISEWKSNISDVKNLLVNIGEEFASKYTGNELQEKYTQWFREHRSELWPLDRYKYIDKDGIYTGSQSVHNPGKEGYRYDIIHPKTKKPCKQPLMGYRFPLDTMDRLLSEEKIIFGDDENKIIELKVYAKDYKQKLSSVIHLDGRVATNELKELFPEMTQPFTNAKTIKLVEDLISFACDGEGIVLDFFAGSGTTAHTVFNLNNKNKTSYQFITVQLDEPTKDKSDAMKHGYNTIFDLTKERLIRASKKNRDQGFKVYQLMPDFRAKDESELTLSNHTFFDDVVLTPEQYDTLLTTWCLYDGSLLTTPIEDVDLGGYKAHLCDGRLYLIAPNFTSEALKALLQKVDSDKDFAPNKVVFYGSNFESAKQMELNEALKSYANKKSIELDLVVRN
notes: Mod (modification) subunit of the Type III restriction endonuclease EcoP15I, Escherichia coli; also called Mod2 (as dimer); source: with biotinylated Res: avidin resin, Mono-Q
B3: the binding result in [7] was “binds”. Also, the entries for the “stoichiometry N” value in data set [8], in [9] and in data set [10] were 2 Mod per Res, 2 Mod per Res and 2, respectively.

B4: EcoP15I Mod subunit (commercial enzyme from New England Biolabs) (enzyme, Escherichia coli, UniProt P12364 1-644, looked up)
chain: B3 chain
notes: Mod subunit of the Type III restriction endonuclease EcoP15I, Escherichia coli; also called EcoP15I NEB; commercially available EcoP15I; source: bought: NEB (catalogue no. R0646S)
Regarding B4, the “stoichiometry N” value in [11] was found to be 2 Mod per Res.
